Key:
[1] = biological target: T1, recombinant cynomolgus monkey PD-1 His tag (Macaca fascicularis (cynomolgus monkey), UniProt B0LAJ3); experiment: BLI; Octet Red96; antibodies (5 μg/ml) captured on protein A biosensor tips; serial dilution of PD-1 as analyte, 120 sec association, 300 sec dissociation; HBS-EP+ pH 7.4, 25°C, 1000 rpm; global 1:1 fit; apparent constants; conditions: both partners purified
T1 construct: cynomolgus monkey PD-1 extracellular domain; also called cynomolgus PD-1; source: bought: R&D Systems

[2] = biological target: T2, human PD-1 (recombinant; construct not stated for this experiment) (Homo sapiens, UniProt Q15116); experiment: SPR; format not told in the text shown (S1 Fig b, c); conditions: both partners purified
T2 construct: human PD-1; the ELISA and the SPR may have used different ones; SPR methods may stand in S1 File

rat PD-1 ECD-Fc = biological target: T3, rat PD-1 ECD-Fc (Rattus norvegicus, UniProt D3ZIN8); experiment: ELISA; PD-1-Fc proteins (9 ng per well) immobilized on 96-well plate overnight at 4°C; serial diluted HLX10, one hour at room temperature; detected with peroxidase-labeled goat anti-human IgG F(ab)'2; conditions: both partners purified
T3 construct: rat PD-1 extracellular domain; also called murine PD-1; source: bought: Sino Biological Inc

mouse PD-1-ECD-Fc = biological target: T4, mouse PD-1-ECD-Fc (Mus musculus, UniProt Q02242); experiment: as above; conditions: both partners purified
T4 construct: mouse PD-1 extracellular domain; also called murine PD-1; source: bought: Sino Biological Inc

[3] = biological target: T5, human PD-1 expressed on PD-1 transfected CHO-S cells (human, UniProt Q15116); experiment: flow cytometry on cells; competition: PD-1-transfected CHO-S cells with serial diluted antibody and 0.5 μg/mL biotin-labeled PD-L2, 4°C, 30 minutes; streptavidin-PE; conditions: one partner purified
T5 construct: human PD-1 on the surface of transfected CHO-S cells; also called cell-surface expressed PD-1; membrane PD-1; source: CHO-S, transfected, on cells

[4] = biological target: T5, human PD-1 expressed on PD-1 …; experiment: flow cytometry on cells; competition: PD-1-transfected CHO-S cells with serial diluted antibody and 5 μg/mL biotin-labeled PD-L1, 4°C, 30 minutes; streptavidin-PE; conditions: one partner purified

Kd [1]: 4.78 ± 0.16 nM
koff [1]: 0.000745 s⁻¹
kon [1]: 153000 M⁻¹ s⁻¹
Kd [2]: 0.32 nM
binding result (rat PD-1 ECD-Fc): no binding
binding result (mouse PD-1-ECD-Fc): no binding
IC50 [3]: 6.46 nM
IC50 [4]: 4.36 nM
B1: HLX10, fully humanized IgG4 monoclonal antibody against PD-1 receptor (antibody, V domains shown)
VH: QVQLVESGGGLVKPGGSLRLSCAASGFTFSNYGMSWIRQAPGKGLEWVSTISGGGSNIYYADSVKGRFTISRDNAKNSLYLQMNSLRAEDTAVYYCVSYYYGIDFWGQGTSVTVSS
VL: DIQMTQSPSSLSASVGDRVTITCKASQDVTTAVAWYQQKPGKAPKLLIYWASTRHTGVPSRFSGSGSGTDFTLTISSLQPEDFATYYCQQHYTIPWTFGGGTKLEIK
notes: humanized VH (CDRs of chimeric c1G4 grafted on human germline IGHV3-11*04) on a human IgG4 constant region; humanized VL (CDRs of chimeric c1G4 grafted on human germline IGKV1-39*01); IgG4, hinge-stabilized; the PDB entry holds the Fab only; also called h1G4; hIG4
